This data set can be described thus: label from the status in PepcDB records.

Regarding “MADNTLHSSARANWLERRFALRSRGGTLRTECLAGITGFLAAAYLLVVIPGLLAIGGMDKGAATTGTILVFVVGSLLMAFYANLPFIVGPGIGGSVLVGVTLAGSEGIGWQTGLGIACWSGILFFLLTRFGLREVVTRSVPQSIKLGLTASIGLFVAVLGFRNAGLVLANAKTNALMLGDFLAPGALVALCGLFLAIALQARKVPGAILWAILCATLVGIPFGVTKLPTHFIDAPHSLAPVLGQVDLLGALNIAFLPFLFVFFASEFFSTMGTTLAVGGEAGLLDEEGNMPQINRPFMVDSIAAALGPWLGIPAATALIESSAAAEAGGKTGLTALSAAVMFLLMLLFTPVALMIPKEATAPALILIGLNMFSGLRKVDLANFTDGLPVLMMVMITLIANSFGTGIAGGLLFYIVIKAIAGKWREIPIGLWVLAVPLVYYFATLVRH”, the protein production result is given as “failed”.
Next, “MADPKELQDKFWKALKSDRTVMLGLDGVEDGHARPMTAQIEGDSGGPIWFFTSKDNALIAMLGQGRRVIGAFSSKGHDLFASISGSLREDTDPAVVDRLWNPYVAAWYEGGKDDPKLALLRLDADHAQIWLNGSSLLAGIKVLLGV”: “not failed”; “MADQLYLENIDEFVTDQNKIVTYKWLSYTLGVHVNQAKQMLYDYVERKRKENSGAQLHVTYLVSGSLIQNGHSCHKVAVVREDKLEAVKSKLAVTASIHVYSIQKAMLKDSGPLFNTDYDILKSNLQNCSKFSAIQC”: “failed”.
Under “MADSAELKQMVMSLRVSELQVLLGYAGRNKHGRKHELLTKALHLLKAGCSPAVQMKIKELYRRRF” stands “not failed”.
Under “MADSKEKLFSDFPAVSTEQWMEKITADLKGADFEKKLVWRTNEGFKVKPFYRQEDLEGLKTTEGLPGEFPYVRGTKKNDNTWFVRQEIKVECPKEANAKALDILNKGVDSLGFYVKKKDLSPEYIETLLNDICAECIELNFSTCQGHTVELAKLLVAYFQKKGYDLTKLQGSVNYDPMGKMMVKGKDLSNFITTAKELVEVLAPLPKFRCICVNAIELNNAGSYISQELGYALAWGNEYLSKLVEAGVPAALAAKKIKFNFGISSNYFLEIAKFRAARMLWADIVKEYHPQCNRQPECPNKAEDGTCLCACKMVAHAETSTFNLTLFDAHVNLLRTQTEAMSAALAGVNSITVTPFDKTYETPDDFSERIARNQQLLLKEECHFNKVVDPAAGSYFIENLTISIATQAWELFLKVEDEGGMLEAVKAGKVQEAINASNKARHDSVSKRKEILLGTNQYPNFNEKAGEKAPVEAKCCCGGNHDSCEKPFATLNFDRAASQFEALRLQTEKSGKRPKAFMLTIGNLAMRQARAQFSCNFLACAGYEVIDNLGFPTVEAGVEAAMKAGADIVVICSSDDEYAEYAIPAFKALDGRAIFIVAGAPACMEELKAAGIENFIHVRVNVLDTLKEYNAKLGIK” stands “failed”; under “MADTGDTAGAKKNGDSTFTVLVAAFANLGIAVAKAVAGVISGSSAMLSEAAHSVADTVTEVLLLTSLKRSVRPADEDHPLGHGPERYIWALLAAVATFVGGAVFSLYDGIHTLTHGEDLGDPLVSYIVLAVAFVLEGYSLRTGLRQVRGEAAHHRVSFGRYLRRTPDTAVKAVVMEDSAALAGLLLAAGGLLGGQLTGSGVWDAVASLCIGALLLYVAWVLGRSNAEFLVGRPLSRSVRDRIRAELVADEHIEAVLELTTLVQGPREALVAAKVDFRDVSTAAQIEWACERAEQRLREEFPIVRRVYLDPTPGFAQRRTEGLNPWP”, “failed”.
Regarding “MADTNYIRDLSLHRNNHVLYVKILSIWDNQSMIFGTPTTMILYDVKGTRIDTRVPWGDYLNNFKPSLFEGKWYYIADFRLKRATSIPKYSSFNYEIEFMWHTKMWPVSDRSDESSLQFIHADEIESESEDYVTDAIGVISSVSTEARFPYVCREGETDYEARYVTFTIRDNLDRIITCVARGSACESFLTKFYRLIGMKTYNYEPITTVLRFFRASNFKGSKALISEHGCSRIFIEESFPDFDVTVYINWFACEDDGSVEGKIEYFVEN”, the protein production result is “failed”.
For the sequence “MADWLIGIIMGAVEGLTEFLPVSSTGHMILTGHLLGFDDERAKVFEVVIQLGSILAVVVIFWKRLWSLVGIGKVTDGPSLNLLHIIIGMIPAGVLGVLFHSAIKEVLFGPGPVVISLVAGGILMIVAEKFSKPSTARTLDEITYKQAFTIGMFQCLALWPGFSRSGSTISGGLLARVSHTAAAEYTFILAVPMMVAASGLDLIKSWDILSAADIPLFATGFITAFVVAMLAIVSFLKLLSRVKLTPFAYYRFILAAVFYFFIM”, the protein production entry is listed as “failed”.
Next, “MADWVTGKVTKVQNWTDALFSLTVHAPINPFTAGQFTKLGLEIDGERVQRAYSYVNAPDNPNLEFYLVTVPQGKLSPRLAALKPGDEVQVVSDASGFFVLDEVPDCETLWMLATGTAIGPYLSILQYGQDVARFKNLVLVHAARFAADLSYLPLMLELQQRYEGKLRIQTVVSRENVPGSLTGRVPALIENGELEKAVGLPMDKETSHVMLCGNPQMVRDTQQLLKETRQMTKHLRRRPGHMTAEHYW”: “not failed”; “MAEASATEPERPDQESADDAVIATRALTKRYRGGQLAVDGLDLTVPAGSVFGFLGPNGSGKTTTIRMLMGLIEPTSGSARVLGRPMPRAARAVLPRVGALIEGPALYGFLSGRDNLLRYDAADPTADPRTRRERVAAALDRVGLAAAGGKKAKAYSLGMKQRLGLAAALLQPRRLLVLDEPTNGLDPQGMREIRSLVRELASDGTTVFLSSHLLDEIEQVCTHAAVMAQGRLITQGAVADLAAGARGRLVVTTPDAGDAARVLKEQGAADVVVDGDRVTAEPPERDLAEVNAALVAARVRVRGFVVERASLEDAFVALTGEGFDVAG”: “failed”; “MAEAVLENVNVPAVVSKDECIYCFESPYNEPLALNASPKHSLNICLNCFQATCNRHVPLHIRVTEYACDTIHSNYLTIAKVEKPKQENVEENNNNKKIKLQVIETSEDDTHNTIWSLQRFNGENVPRTVLSKSTDSDISSTALEKIEKILKAKSQDFEDKKNSWVLEISTCPHTENFQIPSKPENTVNLNQCSSCDLTQNLWLCLHCGNIGCGREQIGIDGHSHALDHYRSNNNHPLAIKLGSLSSSTYDLYCYACDDETRFPDNVNLGSALQIYGINIQEKIADEKTLVQLQVEQNENWQFRMVDSSGKEFEKLSASKNYGCGLINLGNSCYLNSVIQSLVNGGVPNWSLDFLGSKFPLDVVYPDNNLKCQWIKLLNAMKCEPELYPNGIKPTTFKKCIGQNHQEFSSNRQQDAMEFLTFLLDLLDKKFFSSSSSGIPNPNDLVRFMMEDRLQCNICGKVKYSYEPTEAIQIPLEENDEPQDMLERIKAYFEGQTIEFKCANCKEKVTANKKPGFKSLPQTLILNPIRIRLQNWIPVKTSNELSLPGLIDRDDMLDVSSYLSQGFDPQTENLLPDEDENRSSFTPNQCSISQLIEMGFTQNASVRALFNTGNQDAESAMNWLFQHMDDPDLNDPFVPPPNVPKKDKREVDEVSLTSMLSMGLNPNLCRKALILNNGDVNRSVEWVFNNMDDDGTFPEPEVPNEEQQQKKDLGYSTAKPYALTAVICHKGNSVHSGHYVVFIRKLVADKWKWVLYNDEKLVAADSIEDMKKNGYIYFYTRC”: “failed”.
Under “MAEEQAATAMETSAVEKQPETTTEAEAPSLTTKRMVVAIDESDSSFYALQWVIDHFSNLLLTTAAAEAESGMLTVIHVQSPFNHFAAFPAGPGGATAVYASSSMIESVKKAQQETSAALLSRALQMCRAKQIRTETLVLEGEAKEMICEAVEKMHVDLLVVGSRGLGKIKRAFLGSVSDYCAHHANCPILIVKPPKEMTK” stands “failed”; under “MAEERSLNGEATGQDDESFFDSDQQGDDGKSTELNQKIGDLESQNQELARDNDAINRKIESLTAEIEELRGAESKAKRKMGEMEREIDKSDEERKVLEAIASRASELETEVARLQHELITARTEGEEATAEAEKLRSEISQKGGGIEELEKEVAGLRTVKEENEKRMKELESKLGALEVKELDEKNKKFRAEEEMREKIDNKEKEVHDLKEKIKSLESDVAKGKTELQKWITEKMVVEDSLKDSEKKVVALESEIVELQKQLDDAEKMINGLKNVVEEPLNGIEFKSWSPNVTAVGSGGAVAAVAVAVAGAAVVCYIYHSRRV”, “failed”; under “MAEGKDRNFVTALARGLDVLRSFRPGEVLLTNTDLSERTGLPKPTVSRLTYTLCQLGYLVQDRQSGAYRLGVGVLQLGMGVLAGLDICDRAAEVLRGLRTGANPYITAALGEVHRAEVIYVAVSRSRENVSLSMHVGSRLPLFRSAIGRAILVGMEAEEREAAIAAGMRDLGVPEAELRSQIARAVEEYAVRGYCTGYGDWRADVNGIAVPVLSLGGARLHGLNLGGPSFHVTQEELERVFAPLLIEAGRSLGMVP”, “failed”.
